From US20240209076A1 (KODIAK SCIENCES, published 2024)

How the values were obtained:
recombinant human IL-6 [1] = biological target: T1, recombinant human IL-6 (human, UniProt P05231 30-212); assay: SPR (Biacore), supernatant IgG on Protein A, 25 C
T1 construct: Flowed in solution over the captured antibodies
T1 sequence (P05231 30-212 limits assumed): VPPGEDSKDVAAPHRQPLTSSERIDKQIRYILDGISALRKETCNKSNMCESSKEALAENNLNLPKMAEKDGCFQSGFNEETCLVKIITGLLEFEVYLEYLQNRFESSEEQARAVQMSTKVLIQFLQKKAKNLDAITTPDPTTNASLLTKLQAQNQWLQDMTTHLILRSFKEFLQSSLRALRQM

recombinant human IL-6 [2] = biological target: T1, recombinant human IL-6; assay: SPR (Biacore), purified IgG on Protein A, 37 C
Procedure: (§1) Antibodies were captured on a Protein A chip (GE) by injecting 1:20 dilution of cell supernatant at 10 μL/min for 60 seconds. […] The sensor chip was regenerated by a 60 seconds injection of 10 mM Glycine pH 1.7 at flow rate of 50 μL/min. […] For this setup, 1 μg/mL of purified antibody was injected over a Protein A chip at 10 μL/min for 25-28 seconds. Data analysis for supernatant and purified samples were performed using BIAevaluation software (GE). All sensorgrams were double reference subtracted and fit using a 1:1 Langmuir binding model.

recombinant human IL-6 [3] = biological target: T2, recombinant human IL-6 (human, UniProt P05231 30-212); assay: SPR Biacore, supernatant Ab on Protein A chip, IL-6 analyte, 25 C
T2 construct: Bought protein
Procedure: as §1
T2 sequence (P05231 30-212 limits assumed): as above

B1: anti-IL-6 antibody, parent sequence (heavy chain WT, light chain WT) (antibody, V domains shown)
VH: EVQLVESGGGLVQPGGSLRLSCAASGFTFSPFAMSWVRQAPGKGLEWVAKISPGGSWTYYSDTVTGRFTFSLDTSKSTAYLQMNSLRAEDTAVYYCARQLWGYYALDIWGQGTLVTVSS
VL: DIQLTQSPSSLSASVGDRVTITCSASISVSYMYWYQQKPGKAPKLLIYDMSNLASGVPSRFSGSGSGTDFTLTISSLQPEDFATYYCMQWSGYPYTFGQGTKVEIK
notes: Tested as full antibody from Expi293 cells in an engineered human IgG1 framework (L234A, L235A, G237A, L443C, EU); also called wild-type; parent molecule
Binder B1 has a Kd (recombinant human IL-6 [1]) of 0.399 nM, a koff (recombinant human IL-6 [1]) of 0.000126 s⁻¹ and a kon (recombinant human IL-6 [1]) of 315000 M⁻¹ s⁻¹. The Kd (recombinant human IL-6 [2]) was 0.158 nM, the koff (recombinant human IL-6 [2]) was 0.000139 s⁻¹ and the kon (recombinant human IL-6 [2]) was 880000 M⁻¹ s⁻¹.

B2: anti-IL-6 antibody, heavy chain D62Q, light chain WT (antibody, IgG1, V domains shown)
VH: EVQLVESGGGLVQPGGSLRLSCAASGFTFSPFAMSWVRQAPGKGLEWVAKISPGGSWTYYSQTVTGRFTFSLDTSKSTAYLQMNSLRAEDTAVYYCARQLWGYYALDIWGQGTLVTVSS
VL: DIQLTQSPSSLSASVGDRVTITCSASISVSYMYWYQQKPGKAPKLLIYDMSNLASGVPSRFSGSGSGTDFTLTISSLQPEDFATYYCMQWSGYPYTFGQGTKVEIK
notes: Full IgG1 tested; V domains derived as in m2
B2 gave a Kd (recombinant human IL-6 [1]) of 0.366 nM, a koff (recombinant human IL-6 [1]) of 0.000148 s⁻¹ and a kon (recombinant human IL-6 [1]) of 403000 M⁻¹ s⁻¹. It also gave a Kd (recombinant human IL-6 [2]) of 0.687 nM, a koff (recombinant human IL-6 [2]) of 0.000601 s⁻¹ and a kon (recombinant human IL-6 [2]) of 875000 M⁻¹ s⁻¹.

B3: anti-IL-6 antibody, heavy chain D107E, light chain WT (antibody, IgG1, V domains shown)
VH: EVQLVESGGGLVQPGGSLRLSCAASGFTFSPFAMSWVRQAPGKGLEWVAKISPGGSWTYYSDTVTGRFTFSLDTSKSTAYLQMNSLRAEDTAVYYCARQLWGYYALEIWGQGTLVTVSS
VL: DIQLTQSPSSLSASVGDRVTITCSASISVSYMYWYQQKPGKAPKLLIYDMSNLASGVPSRFSGSGSGTDFTLTISSLQPEDFATYYCMQWSGYPYTFGQGTKVEIK
notes: as for B2
With B3 the Kd (recombinant human IL-6 [1]) was 0.29 nM, the koff (recombinant human IL-6 [1]) was 0.000147 s⁻¹ and the kon (recombinant human IL-6 [1]) was 509000 M⁻¹ s⁻¹. It also gave a Kd (recombinant human IL-6 [2]) of 0.527 nM, a koff (recombinant human IL-6 [2]) of 0.000402 s⁻¹ and a kon (recombinant human IL-6 [2]) of 762000 M⁻¹ s⁻¹.

B4: anti-IL-6 antibody, heavy chain F29H, light chain WT (antibody, IgG1, V domains shown)
VH: EVQLVESGGGLVQPGGSLRLSCAASGFTHSPFAMSWVRQAPGKGLEWVAKISPGGSWTYYSDTVTGRFTFSLDTSKSTAYLQMNSLRAEDTAVYYCARQLWGYYALDIWGQGTLVTVSS
VL: DIQLTQSPSSLSASVGDRVTITCSASISVSYMYWYQQKPGKAPKLLIYDMSNLASGVPSRFSGSGSGTDFTLTISSLQPEDFATYYCMQWSGYPYTFGQGTKVEIK
notes: as for B2
Binder B4 has a Kd (recombinant human IL-6 [1]) of 0.273 nM, a koff (recombinant human IL-6 [1]) of 0.000135 s⁻¹ and a kon (recombinant human IL-6 [1]) of 495000 M⁻¹ s⁻¹. It also gave a Kd (recombinant human IL-6 [2]) of 0.466 nM, a koff (recombinant human IL-6 [2]) of 0.000397 s⁻¹ and a kon (recombinant human IL-6 [2]) of 850000 M⁻¹ s⁻¹.

B5: anti-IL-6 antibody, light chain S51D (heavy chain WT) (antibody, V domains shown)
VH: EVQLVESGGGLVQPGGSLRLSCAASGFTFSPFAMSWVRQAPGKGLEWVAKISPGGSWTYYSDTVTGRFTFSLDTSKSTAYLQMNSLRAEDTAVYYCARQLWGYYALDIWGQGTLVTVSS
VL: DIQLTQSPSSLSASVGDRVTITCSASISVSYMYWYQQKPGKAPKLLIYDMDNLASGVPSRFSGSGSGTDFTLTISSLQPEDFATYYCMQWSGYPYTFGQGTKVEIK
notes: See note of m2; also called WT / S51D
With B5 the Kd (recombinant human IL-6 [3]) was 0.296 nM, the koff (recombinant human IL-6 [3]) was 0.000216 s⁻¹ and the kon (recombinant human IL-6 [3]) was 729000 M⁻¹ s⁻¹.

B6: anti-IL-6 antibody, light chain S51K (heavy chain WT) (antibody, V domains shown)
VH: EVQLVESGGGLVQPGGSLRLSCAASGFTFSPFAMSWVRQAPGKGLEWVAKISPGGSWTYYSDTVTGRFTFSLDTSKSTAYLQMNSLRAEDTAVYYCARQLWGYYALDIWGQGTLVTVSS
VL: DIQLTQSPSSLSASVGDRVTITCSASISVSYMYWYQQKPGKAPKLLIYDMKNLASGVPSRFSGSGSGTDFTLTISSLQPEDFATYYCMQWSGYPYTFGQGTKVEIK
notes: See note of m2; also called WT / S51K
Work on B6 yielded a Kd (recombinant human IL-6 [3]) of 0.535 nM, a koff (recombinant human IL-6 [3]) of 0.000212 s⁻¹ and a kon (recombinant human IL-6 [3]) of 396000 M⁻¹ s⁻¹.

B7: anti-IL-6 antibody, light chain S51R (heavy chain WT) (antibody, V domains shown)
VH: EVQLVESGGGLVQPGGSLRLSCAASGFTFSPFAMSWVRQAPGKGLEWVAKISPGGSWTYYSDTVTGRFTFSLDTSKSTAYLQMNSLRAEDTAVYYCARQLWGYYALDIWGQGTLVTVSS
VL: DIQLTQSPSSLSASVGDRVTITCSASISVSYMYWYQQKPGKAPKLLIYDMRNLASGVPSRFSGSGSGTDFTLTISSLQPEDFATYYCMQWSGYPYTFGQGTKVEIK
notes: See note of m2; also called WT / S51R
Work on B7 yielded a Kd (recombinant human IL-6 [3]) of 0.463 nM, a koff (recombinant human IL-6 [3]) of 0.000231 s⁻¹ and a kon (recombinant human IL-6 [3]) of 499000 M⁻¹ s⁻¹.

B8: anti-IL-6 antibody, light chain S55L (heavy chain WT) (antibody, V domains shown)
VH: EVQLVESGGGLVQPGGSLRLSCAASGFTFSPFAMSWVRQAPGKGLEWVAKISPGGSWTYYSDTVTGRFTFSLDTSKSTAYLQMNSLRAEDTAVYYCARQLWGYYALDIWGQGTLVTVSS
VL: DIQLTQSPSSLSASVGDRVTITCSASISVSYMYWYQQKPGKAPKLLIYDMSNLALGVPSRFSGSGSGTDFTLTISSLQPEDFATYYCMQWSGYPYTFGQGTKVEIK
notes: See note of m2; also called WT / S55L
B8 showed a Kd (recombinant human IL-6 [3]) of 0.329 nM, a koff (recombinant human IL-6 [3]) of 0.00022 s⁻¹ and a kon (recombinant human IL-6 [3]) of 668000 M⁻¹ s⁻¹.

B9: anti-IL-6 antibody, light chain S55R (heavy chain WT) (antibody, V domains shown)
VH: EVQLVESGGGLVQPGGSLRLSCAASGFTFSPFAMSWVRQAPGKGLEWVAKISPGGSWTYYSDTVTGRFTFSLDTSKSTAYLQMNSLRAEDTAVYYCARQLWGYYALDIWGQGTLVTVSS
VL: DIQLTQSPSSLSASVGDRVTITCSASISVSYMYWYQQKPGKAPKLLIYDMSNLARGVPSRFSGSGSGTDFTLTISSLQPEDFATYYCMQWSGYPYTFGQGTKVEIK
notes: See note of m2; also called WT / S55R
In the case of B9, the Kd (recombinant human IL-6 [3]) is reported as 0.109 nM, the koff (recombinant human IL-6 [3]) is reported as 0.000107 s⁻¹ and the kon (recombinant human IL-6 [3]) is reported as 987000 M⁻¹ s⁻¹.
